# From patent publication US20240201167A1 (ALBERT EINSTEIN COLLEGE OF MEDICINE, published 2024)
# Where “and” joins values, the source holds several entries; their conditions need not be identical. Equal entries are not always repeated.
# T1: human p75 neurotrophin receptor, full length, expressed on HEK 293 cells (Homo sapiens, UniProt P08138 29-427)
# T1 construct: Full-length human p75 with a cytosolic fluorescent tag (GFP); also called p75NTR; NGFR
# T1 sequence: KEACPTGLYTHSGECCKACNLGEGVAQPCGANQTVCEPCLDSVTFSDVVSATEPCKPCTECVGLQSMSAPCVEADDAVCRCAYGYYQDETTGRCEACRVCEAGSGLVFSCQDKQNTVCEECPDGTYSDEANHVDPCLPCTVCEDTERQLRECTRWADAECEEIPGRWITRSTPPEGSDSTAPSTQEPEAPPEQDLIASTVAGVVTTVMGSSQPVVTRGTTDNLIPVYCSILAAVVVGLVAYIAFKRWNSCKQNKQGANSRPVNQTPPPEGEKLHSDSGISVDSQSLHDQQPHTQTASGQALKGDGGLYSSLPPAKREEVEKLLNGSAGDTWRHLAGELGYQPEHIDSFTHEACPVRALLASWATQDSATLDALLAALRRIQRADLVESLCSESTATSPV
# T2: FAS expressed on cells (human, UniProt P25445 26-335)
# T2 construct: whole, on cells
# T2 sequence (looked up): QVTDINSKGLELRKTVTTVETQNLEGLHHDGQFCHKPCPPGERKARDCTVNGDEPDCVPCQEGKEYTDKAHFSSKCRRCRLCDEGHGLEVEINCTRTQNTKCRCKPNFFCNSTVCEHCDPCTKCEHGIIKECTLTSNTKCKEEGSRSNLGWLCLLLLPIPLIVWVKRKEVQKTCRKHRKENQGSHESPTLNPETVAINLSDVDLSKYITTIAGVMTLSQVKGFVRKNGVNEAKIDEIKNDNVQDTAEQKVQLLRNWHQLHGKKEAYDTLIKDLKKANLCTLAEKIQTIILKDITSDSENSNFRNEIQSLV
# T3: TNFR2 expressed on cells (human, UniProt P20333 23-461)
# T3 construct: whole, on cells
# T3 sequence (looked up): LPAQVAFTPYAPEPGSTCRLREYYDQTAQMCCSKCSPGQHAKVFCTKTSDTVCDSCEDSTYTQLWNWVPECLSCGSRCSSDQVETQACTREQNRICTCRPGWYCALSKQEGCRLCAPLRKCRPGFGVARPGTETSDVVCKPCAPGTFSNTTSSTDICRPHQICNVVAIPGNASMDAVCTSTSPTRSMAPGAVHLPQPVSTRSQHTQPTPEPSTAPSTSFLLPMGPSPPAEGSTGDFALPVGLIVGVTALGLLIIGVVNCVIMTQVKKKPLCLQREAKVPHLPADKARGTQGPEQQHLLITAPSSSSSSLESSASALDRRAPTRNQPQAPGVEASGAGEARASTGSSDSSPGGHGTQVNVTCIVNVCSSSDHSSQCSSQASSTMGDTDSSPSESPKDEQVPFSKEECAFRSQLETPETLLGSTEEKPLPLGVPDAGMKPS
# T4: SorCS3 expressed on cells (UniProt Q9UPU3 134-1222, limits assumed)
# T4 construct: whole, on cells
# T4 sequence (looked up): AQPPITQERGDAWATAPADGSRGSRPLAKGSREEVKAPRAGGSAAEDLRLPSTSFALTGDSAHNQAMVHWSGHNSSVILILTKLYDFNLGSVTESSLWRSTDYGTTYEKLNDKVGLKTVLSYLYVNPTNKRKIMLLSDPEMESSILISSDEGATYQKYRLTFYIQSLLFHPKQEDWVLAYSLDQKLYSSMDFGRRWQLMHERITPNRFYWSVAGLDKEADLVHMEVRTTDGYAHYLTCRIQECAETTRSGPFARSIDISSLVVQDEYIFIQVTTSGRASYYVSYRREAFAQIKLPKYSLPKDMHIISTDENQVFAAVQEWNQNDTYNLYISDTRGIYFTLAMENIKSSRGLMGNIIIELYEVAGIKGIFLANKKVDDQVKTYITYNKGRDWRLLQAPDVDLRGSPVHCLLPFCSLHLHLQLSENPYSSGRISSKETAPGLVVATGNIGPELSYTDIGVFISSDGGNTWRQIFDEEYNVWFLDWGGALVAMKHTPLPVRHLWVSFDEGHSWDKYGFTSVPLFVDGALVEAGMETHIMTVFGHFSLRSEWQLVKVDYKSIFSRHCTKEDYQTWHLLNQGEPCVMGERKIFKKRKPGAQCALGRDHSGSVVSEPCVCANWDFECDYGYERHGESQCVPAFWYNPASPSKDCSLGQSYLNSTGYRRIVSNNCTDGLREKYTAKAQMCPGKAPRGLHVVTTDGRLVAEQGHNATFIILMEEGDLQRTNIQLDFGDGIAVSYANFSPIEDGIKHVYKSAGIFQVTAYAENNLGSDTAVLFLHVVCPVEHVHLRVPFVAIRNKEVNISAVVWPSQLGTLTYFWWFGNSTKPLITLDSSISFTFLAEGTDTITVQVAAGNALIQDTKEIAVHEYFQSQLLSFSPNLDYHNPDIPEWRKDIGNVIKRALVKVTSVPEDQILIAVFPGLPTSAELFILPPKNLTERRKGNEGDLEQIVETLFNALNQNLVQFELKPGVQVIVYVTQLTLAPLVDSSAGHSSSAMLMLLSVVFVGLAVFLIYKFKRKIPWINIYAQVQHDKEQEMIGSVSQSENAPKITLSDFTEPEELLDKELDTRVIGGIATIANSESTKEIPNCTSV
# T5: SorCS1 expressed on cells (UniProt Q8WY21 34-1168, limits assumed)
# T5 construct: whole, on cells
# T5 sequence (looked up): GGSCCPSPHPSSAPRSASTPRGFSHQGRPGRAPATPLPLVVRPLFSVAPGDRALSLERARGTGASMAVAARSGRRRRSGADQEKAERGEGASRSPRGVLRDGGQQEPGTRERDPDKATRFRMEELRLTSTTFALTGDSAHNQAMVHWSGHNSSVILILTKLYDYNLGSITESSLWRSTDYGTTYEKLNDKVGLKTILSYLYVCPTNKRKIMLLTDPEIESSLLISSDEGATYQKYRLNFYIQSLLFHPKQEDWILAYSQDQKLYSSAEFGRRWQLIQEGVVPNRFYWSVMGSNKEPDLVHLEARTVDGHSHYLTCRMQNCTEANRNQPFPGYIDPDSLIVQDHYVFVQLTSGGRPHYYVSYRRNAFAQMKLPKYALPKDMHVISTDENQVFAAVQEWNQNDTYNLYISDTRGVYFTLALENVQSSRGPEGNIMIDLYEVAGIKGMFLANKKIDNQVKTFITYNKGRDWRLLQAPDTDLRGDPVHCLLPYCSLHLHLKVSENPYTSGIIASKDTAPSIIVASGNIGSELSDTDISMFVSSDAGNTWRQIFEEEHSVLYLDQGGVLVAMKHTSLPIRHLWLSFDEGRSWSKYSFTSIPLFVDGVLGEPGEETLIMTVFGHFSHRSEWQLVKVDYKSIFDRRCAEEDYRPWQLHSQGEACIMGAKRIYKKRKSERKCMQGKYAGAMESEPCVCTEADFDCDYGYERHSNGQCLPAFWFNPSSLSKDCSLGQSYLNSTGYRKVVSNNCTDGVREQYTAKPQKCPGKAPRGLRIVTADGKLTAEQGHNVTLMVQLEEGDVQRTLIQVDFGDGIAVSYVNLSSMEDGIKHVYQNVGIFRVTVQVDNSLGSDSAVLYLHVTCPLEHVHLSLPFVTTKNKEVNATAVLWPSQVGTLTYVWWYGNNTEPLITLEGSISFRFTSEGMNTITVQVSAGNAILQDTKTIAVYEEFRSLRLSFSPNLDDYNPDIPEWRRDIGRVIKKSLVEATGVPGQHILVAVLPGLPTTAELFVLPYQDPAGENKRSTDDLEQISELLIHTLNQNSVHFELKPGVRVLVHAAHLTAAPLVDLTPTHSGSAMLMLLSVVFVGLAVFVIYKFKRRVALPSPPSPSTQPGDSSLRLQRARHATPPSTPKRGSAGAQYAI
# How the values were obtained:
# [1] = biological target: T1, human p75 neurotrophin receptor, full …; test: Fc fusion titrated on transfected cells, flow cytometry
# Protocol: (§1) Three days post transfection cells were counted and diluted to 1×10⁶ cells/mL in 1×PBS 0.2% BSA, pH 7.4. Premixed solutions containing a final concentration of 1 μM Fc-fusion protein and 1.5 μM Alexa 647 goat anti-mouse secondary antibody (ThermoFisher, A-21235) were incubated on ice for 30 min. Subsequently, increasing amounts of the premixed solution was added to wells of a 96-well plate and the volume adjusted to 50 μL with 1×PBS and 100 μL of diluted cells (100,000 cells total) added to the wells. Binding was performed at room temperature for 1 hour, the cells washed 2× with 1×PBS 0.2% BSA by centrifugation and subsequently analyzed by Flow Cytometry on a SONY Spectral Analyzer (SA 3800). Gated live cells were sub-gated for GFP, and GFP-positive cells sub-gated for Alexa-647.
# [2] = biological target: T6, human CTLA-4 expressed on HEK 293 cells (human, UniProt P16410 36-223); test: Fc fusion titrated on CTLA-4-expressing cells, flow cytometry
# T6 construct: whole, on cells; also called CTLA-4-GFP
# T6 sequence (P16410 36-223): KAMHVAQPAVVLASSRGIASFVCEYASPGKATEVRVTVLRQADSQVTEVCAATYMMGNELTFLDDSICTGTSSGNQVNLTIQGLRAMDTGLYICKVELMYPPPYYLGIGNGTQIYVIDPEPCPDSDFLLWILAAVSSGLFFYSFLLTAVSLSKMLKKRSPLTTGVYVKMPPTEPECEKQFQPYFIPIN
# Protocol: as §1
# [3] = biological target: T7, human CD28 expressed on HEK 293 cells (human, UniProt P10747 19-220); test: Fc fusion titrated on CD28-expressing cells, flow cytometry
# T7 construct: whole, on cells; also called CD28-GFP
# Protocol: as §1
# [4] = biological target: T2, FAS expressed on cells; test: cell-cell screen, flow cytometry
# Protocol: (§2) As illustrated, cells were transfected with expression cassettes expressing labeled receptors or labeled ligands, receptor-expressing cells were mixed with ligand-expressing cells and cell-to-cell binding was monitored by detecting the labels associated with the receptor and the ligand. […] Binding was detected using an anti-mIgG2A ab and flow cytometry. The binding curves were fit and the Bmax, EC50, and hill coefficient were calculated using the equation Y=Bmax*Xh/(Kdh+Xh).
# [5] = biological target: T3, TNFR2 expressed on cells; test: cell-cell screen, flow cytometry
# Protocol: as §2
# [6] = biological target: T8, SorCS2 expressed on cells (UniProt Q96PQ0 51-1159, limits assumed); test: cell-cell binding
# T8 construct: whole, on cells
# T8 sequence (Q96PQ0 51-1159 limits assumed): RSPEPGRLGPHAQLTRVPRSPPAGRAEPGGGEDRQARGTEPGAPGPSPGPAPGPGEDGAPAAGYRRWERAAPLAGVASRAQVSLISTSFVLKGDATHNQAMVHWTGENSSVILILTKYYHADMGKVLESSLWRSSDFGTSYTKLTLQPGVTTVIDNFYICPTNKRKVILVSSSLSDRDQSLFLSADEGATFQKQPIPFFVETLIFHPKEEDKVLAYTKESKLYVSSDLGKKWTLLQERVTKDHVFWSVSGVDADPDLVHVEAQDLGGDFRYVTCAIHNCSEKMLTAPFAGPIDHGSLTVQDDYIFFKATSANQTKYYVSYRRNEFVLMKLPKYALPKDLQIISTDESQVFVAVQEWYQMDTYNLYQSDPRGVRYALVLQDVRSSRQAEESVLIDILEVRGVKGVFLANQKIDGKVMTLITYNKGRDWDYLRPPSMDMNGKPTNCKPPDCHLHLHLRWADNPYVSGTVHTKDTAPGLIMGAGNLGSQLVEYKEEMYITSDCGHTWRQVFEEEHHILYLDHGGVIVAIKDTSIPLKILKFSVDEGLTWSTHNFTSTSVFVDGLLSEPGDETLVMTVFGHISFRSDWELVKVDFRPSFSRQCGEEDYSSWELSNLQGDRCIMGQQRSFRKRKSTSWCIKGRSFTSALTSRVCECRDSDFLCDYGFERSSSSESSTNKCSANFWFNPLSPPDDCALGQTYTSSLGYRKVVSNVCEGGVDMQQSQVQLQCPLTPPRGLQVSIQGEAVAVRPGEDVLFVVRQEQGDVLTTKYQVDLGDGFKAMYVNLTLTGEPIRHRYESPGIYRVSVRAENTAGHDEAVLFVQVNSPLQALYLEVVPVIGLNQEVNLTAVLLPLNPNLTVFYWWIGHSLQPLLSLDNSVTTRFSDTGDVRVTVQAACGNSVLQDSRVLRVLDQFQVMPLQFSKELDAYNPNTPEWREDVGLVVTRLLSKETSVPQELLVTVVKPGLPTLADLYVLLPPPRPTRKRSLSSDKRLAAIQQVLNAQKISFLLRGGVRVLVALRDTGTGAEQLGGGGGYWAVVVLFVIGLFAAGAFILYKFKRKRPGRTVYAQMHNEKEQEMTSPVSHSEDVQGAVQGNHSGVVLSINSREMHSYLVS
# [7] = biological target: T4, SorCS3 expressed on cells; test: cell-cell binding
# [8] = biological target: T5, SorCS1 expressed on cells; test: cell-cell binding
# [9] = biological target: T9, Sortilin expressed on cells (UniProt Q99523 78-831, limits assumed); test: cell-cell binding
# T9 construct: whole, on cells
binding result [1],EC50 [2],EC50 [3],binding result [4],binding result [5],binding result [6],binding result [7],binding result [8],binding result [9],Binder
no binding,~9 nM and ~10 nM,~9 nM and ~10 nM,–,–,–,–,–,–,"B7-1N82E-Fc (Fc fusion, also called recombinant mutant B7-1 N82E; B7-1 N82E Fc fusion protein; not shown: C-terminal deca-His-tagged Fc domain (mIgG2a-His10 or hIgG1-His10)) VIHVTYEVKEVATLSCGHNVSVEELAQTRIYWQKEKKMVLTMMSGDMEIWPEYKNRTIFDITNNLSIVILALRPSDEGTYECVVLKYEKDAFKREHLAEVTLSVKADFPTPSISDFEIPTSNIRRIICSTSGGFPEPHLSWLENGEELNAINTTVSQDPETELYAVSSKLDFNMTTNHSFMCLIKYGHLRVNQTFNWNT"
–,–,–,no binding,no binding,no binding,no binding,no binding,no binding,"human B7-1 (CD80), full length, expressed on HEK 293 cells (ligand, also called hB7-1; B7-1-mCherry) VIHVTYEVKEVATLSCGHNVSVEELAQTRIYWQKEKKMVLTMMSGDMNIWPEYKNRTIFDITNNLSIVILALRPSDEGTYECVVLKYEKDAFKREHLAEVTLSVKADFPTPSISDFEIPTSNIRRIICSTSGGFPEPHLSWLENGEELNAINTTVSQDPETELYAVSSKLDFNMTTNHSFMCLIKYGHLRVNQTFNWNTTKQEHFPDNLLPSWAITLISVNGIFVICCLTYCFAPRCRERRRNERL"
